Assay results published in patent US20090298765A1 (Takeda / Millennium, published 2009).
Non-standard residues stand in square brackets, D forms with d. No end group written: not given here. *: point of attachment. GuAmb = 4-guanidinomethylbenzoyl, N=C(N)NCc1ccc(C(=O)*)cc1; Phe(4-F) = N[C@@H](Cc1ccc(F)cc1)C(=O)O; Arg(Me) = CNC(=N)NCCC[C@H](N)C(=O)O; d3Pal = N[C@H](Cc1cccnc1)C(=O)O; azaGly = NNC(=O)O

Experiments:
[1] = molecular target: T1, human OT7T175 (metastin receptor) (human, UniProt Q969F8 1-398); assay: competition with Cy-5 metastin (40-54) on hOT7T175-CHO cells, FMAT
T1 construct: expressed on CHO cells; also called hOT7T175; hOT7T175-expressed CHO cells
Method: hOT7T175-Expressed CHO cells were cultured in MEM-α medium (nucleic acid-free) containing 10% dialyzed serum. The medium was removed and the adhered cells were washed with PBS. Then, PBS containing 5 mM EDTA was added and the cells were scraped from a flask with a cell scraper.
To each well of a 96-Well Black Clear Bottom Microplate (Applied Biosystems, Inc.), 10 μL of assay buffer containing 1% dimethylsulfoxide was added to examine total binding, 10 μL of 10 μM non-labeled peptide (having the same amino acid sequence as that of labeled one) solution diluted with assay buffer to examine non-specific binding, and 10 μL of a test compound diluted with assay buffer to examine a binding inhibition activity of the test compound, and furthermore, 90 μL each of the cell suspension was dispensed to each well. […] Specific binding is calculated as non-specific binding subtracted from total binding. The binding inhibition activity of a test compound is shown by a ratio of the value obtained by subtracting a measured value in presence of a test compound from the total binding to the specific binding.

[2] = molecular target: T1, human OT7T175 (metastin receptor); assay: cell-based or functional assay

T1 sequence (Q969F8 whole entry L364H): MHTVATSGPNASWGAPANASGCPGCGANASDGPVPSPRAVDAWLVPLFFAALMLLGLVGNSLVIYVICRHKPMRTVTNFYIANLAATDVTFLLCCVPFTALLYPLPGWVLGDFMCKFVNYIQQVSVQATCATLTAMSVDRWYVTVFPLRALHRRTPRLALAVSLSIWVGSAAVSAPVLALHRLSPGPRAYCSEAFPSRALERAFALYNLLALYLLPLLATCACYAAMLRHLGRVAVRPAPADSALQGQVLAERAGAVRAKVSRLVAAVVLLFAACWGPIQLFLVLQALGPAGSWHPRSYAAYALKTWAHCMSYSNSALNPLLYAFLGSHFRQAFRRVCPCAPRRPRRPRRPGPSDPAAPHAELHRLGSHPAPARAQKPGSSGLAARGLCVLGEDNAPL

| Binder | IC50 [1] [nM] | Ca ion level-increasing activity (FLIPR) [2] |
| --- | --- | --- |
| [d3Pal]FNSF[azaGly]L[Arg(Me)]F-NH2 (N-terminus assumed; SMILES CNC(=N)NCCC[C@H](NC(=O)[C@H](CC(C)C)NC(=O)NNC(=O)[C@H](Cc1ccccc1)NC(=O)[C@H](CO)NC(=O)[C@H](CC(N)=O)NC(=O)[C@H](Cc1ccccc1)NC(=O)[C@H](N)Cc1cccnc1)C(=O)N[C@@H](Cc1ccccc1)C(N)=O, also called Compound No. 256) [des(1)-[D-Pya(3)2,Phe3,AzaGly7,Arg(Me)9]MS10] | 22 | 1 x Metastin (1-54) |
| [d3Pal]WNSF[azaGly]L[Arg(Me)]F-NH2 (also called Compound No. 289; [D-Pya(3)2,AzaGly7,Arg(Me)9]MS10-(2-10)) [des(1)-[D-Pya(3)2,AzaGly7,Arg(Me)9]MS10] | 8.4 | 1 x Metastin (1-54) |
| GuAmb-F[azaGly]L[Arg(Me)]W-NH2 [des(1-5)-GuAmb-[AzaGly7,Arg(Me)9,Trp10]MS10] | – | 5 x Metastin (1-54) |
| [d3Pal]NWNSF[azaGly]L[Arg(Me)]F-NH2 (N-terminus assumed; SMILES CNC(=N)NCCC[C@H](NC(=O)[C@H](CC(C)C)NC(=O)NNC(=O)[C@H](Cc1ccccc1)NC(=O)[C@H](CO)NC(=O)[C@H](CC(N)=O)NC(=O)[C@H](Cc1c[nH]c2ccccc12)NC(=O)[C@H](CC(N)=O)NC(=O)[C@H](N)Cc1cccnc1)C(=O)N[C@@H](Cc1ccccc1)C(N)=O, also called Compound No. 258) [[D-Pya(3)1,AzaGly7,Arg(Me)9]MS10] | 90 | 2 x Metastin (1-54) |
| [dA]NWNSF[azaGly]L[Arg(Me)]F-NH2 (N-terminus assumed; SMILES CNC(=N)NCCC[C@H](NC(=O)[C@H](CC(C)C)NC(=O)NNC(=O)[C@H](Cc1ccccc1)NC(=O)[C@H](CO)NC(=O)[C@H](CC(N)=O)NC(=O)[C@H](Cc1c[nH]c2ccccc12)NC(=O)[C@H](CC(N)=O)NC(=O)[C@@H](C)N)C(=O)N[C@@H](Cc1ccccc1)C(N)=O, also called Compound No. 259) [[D-Ala1,AzaGly7,Arg(Me)9]MS10] | 250 | 1 x Metastin (1-54) |
| [dY][dN]TNSF[azaGly]L[Arg(Me)][Phe(4-F)]-NH2 (N-terminus assumed; SMILES CNC(=N)NCCC[C@H](NC(=O)[C@H](CC(C)C)NC(=O)NNC(=O)[C@H](Cc1ccccc1)NC(=O)[C@H](CO)NC(=O)[C@H](CC(N)=O)NC(=O)[C@@H](NC(=O)[C@@H](CC(N)=O)NC(=O)[C@H](N)Cc1ccc(O)cc1)[C@@H](C)O)C(=O)N[C@@H](Cc1ccc(F)cc1)C(N)=O, also called Compound No. 316) [[D-Tyr1,D-Asn2,Thr3,AzaGly7,Arg(Me)9,Phe(4F)10]MS10] | 26 | 1 x Metastin (1-54) |
| [dY][dS]WNSF[azaGly]L[Arg(Me)]F-NH2 (N-terminus assumed; SMILES CNC(=N)NCCC[C@H](NC(=O)[C@H](CC(C)C)NC(=O)NNC(=O)[C@H](Cc1ccccc1)NC(=O)[C@H](CO)NC(=O)[C@H](CC(N)=O)NC(=O)[C@H](Cc1c[nH]c2ccccc12)NC(=O)[C@@H](CO)NC(=O)[C@H](N)Cc1ccc(O)cc1)C(=O)N[C@@H](Cc1ccccc1)C(N)=O, also called Compound No. 287) [[D-Tyr1,D-Ser2,AzaGly7,Arg(Me)9]MS10] | 2.3 | 2 x Metastin (1-54) |
| [dY][dN]FNSF[azaGly]L[Arg(Me)]F-NH2 (also called Compound No. 257) [[D-Tyr1,D-Asn2,Phe3,AzaGly7,Arg(Me)9]MS10] | 40 | 3 x Metastin (1-54) |
| [dY][dN]TNSF[azaGly]L[Arg(Me)]F-NH2 (also called Compound No. 284) [[D-Tyr1,D-Asn2,Thr3,AzaGly7,Arg(Me)9]MS10] | 34 | 1 x Metastin (1-54) |
| [dY][dH]WNSF[azaGly]L[Arg(Me)]F-NH2 (N-terminus assumed; SMILES CNC(=N)NCCC[C@H](NC(=O)[C@H](CC(C)C)NC(=O)NNC(=O)[C@H](Cc1ccccc1)NC(=O)[C@H](CO)NC(=O)[C@H](CC(N)=O)NC(=O)[C@H](Cc1c[nH]c2ccccc12)NC(=O)[C@@H](Cc1c[nH]cn1)NC(=O)[C@H](N)Cc1ccc(O)cc1)C(=O)N[C@@H](Cc1ccccc1)C(N)=O, also called Compound No. 288) [[D-Tyr1,D-His2,AzaGly7,Arg(Me)9]MS10] | 0.072 | 1 x Metastin (1-54) |
